Data taken from the nanobody polyreactivity screen of Harvey et al. (2022).

Test: yeast display, Sf9 membrane polyspecificity reagent, FACS + sequencing; frameworks hold sequencing errors
Outline: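 Galactose-induced (36–48 hours) yeast carrying a synthetic nanobody display library were exposed to 10% biotinylated, detergent-solubilized Sf9 membrane reagent at 4 °C for 1 hour. FACS followed streptavidin microbead enrichment, using low and high (top ~1%) gates for expression (anti-HA) and reagent binding (streptavidin). Colony PCR, MiSeq 2 × 250 sequencing and CDR-length filtering followed. Labels for polyreactivity reflect the gate of origin.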

| Sequence | polyreactivity (PSR sort gate) |
| --- | --- |
| QVQLVESAGGLVQAGGSLRLSCAAYGIIFKIYAMGWYRQAPGKERELVAAITRSGTRTYYADSVKGRFTISRDNEKNTVYFQMNSLKPEDTAGYYCNAYTSLAYDLDYWGQGTQVTVSS | high polyreactivity |
| QVQLVESAGGLVQAGGSLRLSCAAYGRTLAKYAMGWYRQAPGKERELVAAITRDGSTNYADSVKGRFTISRDNAKNTVYLQMNSLKPEDTAVYYCATRSYWYRVYYWGQGTQVTVSS | high polyreactivity |
| QVQLVESAGGLVQAGGSLRLSCAAYGSIFGFYAMGWYRQAPGKERELVAAIDSGDSTNYADSVKGRFTISRDNAKNTVYLQMNSLKPEDTAVYYCNAEAWWYFWFDYWGQGTQVTVSS | low polyreactivity |
| QVQLVESAGGLVQAGGSLRLSCADSGRLFYLYARGWYRQAPGKERELVAAISSTGRTTYADSVKGRFTISRDNAKNTVYLQMNSLKPEDTAVYYGAADFRLSGSYGGFDYWGQGTQVTVSS | low polyreactivity |
| QVQLVESAGGLVQAGGSLRLSCADSGRTFAYNVIGWYRQAPGKERELVAGISFGAGTTYYADSVKGRFTISRDNAKNTVYLQMNSLKPEDTAVYYCATRRRGTRYPRGYDYWGQGTQVTVSS | high polyreactivity |
| QVQLVESAGGLVQAGGSLRLSCGASGRIYSLYAMGWYRQAPGKERELVAAISWGAGSTYYADSVKGRFTISRDNAKNTVYLQMNSLKREDTAVYYCATGRRYYYPYSSYLKYGYWGQGTQVTVSS | high polyreactivity |
| QVQLVESAGGLVQAGGSLRLSFAASGSIFYSYAMGSYRKAAGKDRELVADITSSGGSTYYADSVKGRFTISRDNAKNTDYLQMNSLKREDTAVYYCAASSPAFYGLRYNYWGQGTQVTVSS | low polyreactivity |
| QVQLVESAGGLVQAGGSLRLSGAASGSTFHNYAVGWSRQAPGKERELVGGISVRGGGTYYADSVKGRFTISRDNAKNTVYLQMNSLKPEDTAVYYCAQRSRYYYRYDYWGQGTQVTVSS | high polyreactivity |
| QVQLVESAGGLVQAGGSLRVRCAASGGIFSGNDMGWYRQAPGKERELVATITSDGSTNYADSVKGRFTISRDNAKNTVYLQMNSLKPEDTAVYYCAADGLYWWMYYWGQGTQVTVSS | low polyreactivity |
| QVQLVESAGGLVQAGGSLRYSCAASGRTIYRYAMGWYRQAPGKERELVAAINRSTGRTYYADSVKGRFTISRDNAKNTVYLQMTSLNPEDTAVYYCARSDKKYPQASSREDYGYWGQGTQVTVSS | high polyreactivity |
| QVQLVESAGGLVQAGGSLSLSCAASASTFSSNAMGGYRQAPGKERELVAAITTSGGSTYYADSVKGRFTISRDNAKNTVYLQMNSLIPEDTAVYYCAADLVHAYQWSIFLYGYWGLGTQVTVSS | low polyreactivity |
| QVQLVESAGGLVQAGGSLSLSCAASGRILDRNGMGWYRQAPGKERELVATITGIADSTYYADSVKGRFTISRDNAKNTVYLQMNSLKPEDTAVYYCAADKYVAEYDYWGQGTQVTVSS | low polyreactivity |
| QVQLVESAGGLVQAGGSRRLSCAASGRNFPFYAMGWYRQAPGKERELVATISSGDRTNYAVSVKGRFTISRDNAKNTVYLQMNSLKPEDTAVYYCAADFAVKYRKRVRRYSWGHGTQVTVSS | low polyreactivity |
| QVQLVESAGGLVQAGVRLRLSCAASGRTFVCNAMGSYRQAPGKERELVADITWSGDITYYADSVKGRFTISRDNAKNTVYLQMNSLKPEDTAVYYCAADYHRRLTDYDYWGQGTQVTVSS | low polyreactivity |
| QVQLVESAGGLVQAGVSLRLSCAASGFTFAQNVMGWYRQAPGKERELVAAISVSGGSTYYADSVKGRFTISRDNAKNTVYLQMNSLKPEDTAVYYCNAVAGVTKRVDLSRSGYWGLGTQVTVSS | high polyreactivity |
| QVQLVESAGGLVQAGVSLRLSCAASGFTFSPNAMGWYRQPPGKERELVAAIDWSGDRTYYADSVKGRFTISRDNAKNTVYLQMNSLKPEDTAVYYCAKTNFSQSSRYNYDYWGQGTQVTVSS | low polyreactivity |

| Sequence | polyreactivity (PSR sort gate) |
| --- | --- |
| QVQLVESAGGLVQAGVSLRLSCAASGIIFPYYTMGWYRQAPGKERELVARITNGGRTYYADSVKGRFTISRDNAKNTVYLQMNSLKPEDTAVYYCNAGRYYIGGYWGQGTQVTVSS | high polyreactivity |
| QVQLVESAGGLVQAGVSRRLSFAASGSIFGDYAMGWYRQAPGTERELVATITWIGGSTYYADSVKGRFTISRDNAKNTVYLQMNSLIPEDTAVYYCAATKYVDVKYYYWGQGTQVTLSS | low polyreactivity |
| QVQLVESAGGLVQEGGILRLICADSGRIVYRYAMGWYRQAPGKERELVAAISRRGGSTYYEDSVKGRFTISRDNAKYTVIFQMNSLKAVDTAVYYFARYHWYYRVSKSDSWGQGTQVPVSS | high polyreactivity |
| QVQLVESAGGLVQEGGSLRLSCAASGLTFYGNAMGWYRQAPGKERELVAAISSSGGTTSYADSVKGRFTISRDNAKNTVYLQFNSLKPEDTAVYYCAARPSGGYESTRTRDYWGQGTQVTVSS | low polyreactivity |
| QVQLVESAGGLVQEGGSLRLSCAASGRIFARYAMGWSRQAPGKERELVAAITDSGDNTYYADSVKGRFTISRDNAKNTVYLQMNSLKPEDTAVYYCKAYFLVHYRRLRPYDYWGHGTQVTVSS | low polyreactivity |
| QVQLVESAGRLVKAGGSLRLSCDASGSIFKGNAMGWYRQEPGKERELVAAISRTGGSTYYADSVKGRFTISRDNAKNTVYLQMNSLKPEDTAVYYCAAYSASTYDSWGQGTQVTVSS | high polyreactivity |
| QVQLVESARGLVQAGGCLRLSCAASGSTFHQNAMGWSRQAPGKERELVAAITSGGSTYYADSVKGRFTISRDNAKNTGYLQMNSLKPEDTAVYYCNALTHVRSKRWRFRSEHDYWGQGTQVTVSS | high polyreactivity |
| QVQLVESAVGLVQAGGRLRLSCAASGRIFVFNAMGWYMQAPGKERELVAAITASSTRTYYADSVKGRFTISRDNAKNTVYLQMNSLNPEDPAVYYCARDIRQYILYGRVDYWGQGTQVTVSS | low polyreactivity |
| QVQLVESAVGLVQAGGSLRLSCAASGRIFYFNAMGWYRQAPGKERELVAAISSSGTTYYADSVKGRFTISRDNAKNTVYLQMNSLKPEDTAVYYCAAGYYGHDPRNRYRYNYWGQGTQVTVSS | high polyreactivity |
| QVQLVESAVGLVQAGGSLRLSCDASGRSYYTYAMGWYRQAPGKERELVATITDGGSTYYAESVKGRFTISRDNAKNTVYLQMNSLKPEDTAVYYCAADAYQWYDWGQGTQVTVSS | low polyreactivity |
| QVQLVESCGALVQASGTLRLSCAASGSIFGYNTMRWYRQAPGKERELVAAIYYSGGRTYYADSVKGRFTISRDNAKNTVYLQMNSLKPEDTAVYNCAARKGYRYYYRGQGTQVTVSS | high polyreactivity |
| QVQLVESCGCLVQAVGSLRLSCAASRFIFRLYAMVWYRQAPGKERELVAAISSGTSTYYADSVKVRFTISRDNAKNTVYLQMNSLKPEETEVYYCAAVPRVNWSRYVYFWYDYWGEGTQVTVSS | high polyreactivity |
| QVQLVESCGGLDQAGGSLRLTCAASGINFWYNTMGWYRQAPRKERELVAAITYGGGSTYYADSVKGRFTISRDNAKNSVYLQMYSMKPVDTAVYYCAVRNWHLIKYLHGYSRYGYWGQGTQVTVSS | low polyreactivity |
| QVQLVESCGGLVQAGGSHRLSCAASGFTFTRNALGWYRQAPGKERELVAAISIRGSSTYYADSVKGRFTISRDNAKNTVYLQMNILKQEDTAVYYCSAPTFSLHGTYGYWGQGTQVTVSS | high polyreactivity |
| QVQLVESCGGLVQAGGSLRISCAASGRIFRPYAMGWYRQAPGPEREFVAAITSGSNTYYADSVKWRFTISRDNAKNTVYLQMNSLKPEDTAFYYCAAVQRKRAPAETAYGYWGQGPQVTVSS | high polyreactivity |
| QVQLVESCGGLVQAGGSLRLSCAASGFIFLPYVMGWYRQAPGKERELVAAISGGGGITYYADSVKGRFTISRDNAKNTVYLQMNSLKPEDTAVYYCAAERPVAPYDYWGQGTQVTVSS | low polyreactivity |
